Laboratory results: US20210332115A1 (Sanofi, published 2021)

Tests used:
[1] = target: T1, Homo sapiens factor Bb protein (human, UniProt P00751 260-764); assay: SPR single cycle kinetics; ratio against VH0/Vκ0
T1 construct: Bought from CompTech (A155); also called complement factor Bb; human factor Bb
Method: (§1) In order to assess the binding of all humanized variants, single cycle kinetic analysis was performed on supernatants from transfected cell cultures. […] All single cycle kinetic experiments were run at 25° C. with HBS-P+running buffer (pH 7. 4) (GE Healthcare, Little Chalfont, UK).
(§2) Antibodies were diluted in running buffer to a final concentration of 1 μg/ml, based on concentrations assessed by ELISA titer. At the start of each cycle, antibodies were loaded onto Fc2, Fc3 and Fc4 of the Protein A chip (GE Healthcare, Little Chalfont, UK). IgGs were captured at a flow rate of 10 μl/min to give an immobilization level (RL) of ˜63 RU, the theoretical value to obtain an Rmax of ˜50 RU. The surface was then allowed to stabilize. Single cycle kinetic data was obtained with factor Bb (CompTech, Tyler, USA) as the analyte at a flow rate of 30 μl/min to minimize any potential mass transport limitations. Multiple repeats with the reference chimeric antibody were performed to check the stability of the surface and analyte over the kinetic cycles. The signal from the reference channel Fc1 (no antibody) was subtracted from that of Fc2, Fc3 and Fc4 to correct for differences in non-specific binding to a reference surface. A four point, two-fold dilution range from 0. 78 nM to 6. 25 nM factor Bb without regeneration between each concentration was used. The association phase for the four injections of increasing concentrations of factor Bb was monitored for 200 seconds each time and a single dissociation phase was measured for 200 seconds following the last injection of factor Bb. Regeneration of the Protein A surface was conducted using two injections of 10 mM glycine-HCL pH 1. 5.
(§3) The sensorgrams and fitted data for the single cycle kinetics are shown in FIGS. 1A-1D and the kinetic parameters measured for the interaction of factor Bb with each antibody are shown in Table 7. The relative KD was calculated by dividing the KD of the VH0/Vκ0 reference antibody by that of the humanized variant assayed in the same experiment.

[2] = target: T1, Homo sapiens factor Bb protein; assay: SPR single cycle kinetics, IgG on Protein A chip, factor Bb analyte
Method: as §1, §2, §3

T1 sequence (P00751 260-764 limits assumed): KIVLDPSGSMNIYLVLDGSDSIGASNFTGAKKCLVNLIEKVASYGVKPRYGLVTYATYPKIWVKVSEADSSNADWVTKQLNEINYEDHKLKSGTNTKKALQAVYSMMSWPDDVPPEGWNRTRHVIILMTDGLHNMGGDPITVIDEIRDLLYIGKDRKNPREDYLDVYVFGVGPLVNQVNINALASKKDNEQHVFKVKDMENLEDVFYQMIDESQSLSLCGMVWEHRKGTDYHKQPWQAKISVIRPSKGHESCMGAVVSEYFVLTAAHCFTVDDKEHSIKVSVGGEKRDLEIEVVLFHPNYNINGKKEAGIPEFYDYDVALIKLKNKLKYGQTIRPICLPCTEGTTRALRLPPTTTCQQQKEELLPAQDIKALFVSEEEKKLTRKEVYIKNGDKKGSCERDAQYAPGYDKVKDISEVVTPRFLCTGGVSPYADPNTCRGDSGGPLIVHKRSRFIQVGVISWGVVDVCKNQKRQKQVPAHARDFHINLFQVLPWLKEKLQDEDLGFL

Binder	Relative KD [1]	Kd [2] [nM]	koff [2] [s⁻¹]	kon [2] [M⁻¹ s⁻¹]
VH1/Vκ2 (antibody, V domains shown) VH: EVQLVESGGGLVKPGGSLRLSCAASGFTFSNYAMSWVRQAPGKGLEWVATISNRGSYTYYPDSVKGRFTISRDNAKNSLYLQMSSLRSEDTALYYCARERPMDYWGQGTSVTVSS VL: DIVMTQSPSTLSASVGDRVTITCKASQDVGTAVAWYQQKPGQPPKLLIYWASTRHTGVPDRFTGSGSGTDFTLTISSLQAEDFAVYFCHQHSSNPLTFGQGTKLEIK	2.97	5.22	0.00251	481000
VH2/Vκ3 (antibody, V domains shown) VH: EVQLVESGGGLVKPGGSLRLSCAASGFTFSNYAMSWVRQAPGKGLEWVATISNRGSYTYYPDSVKGRFTISRDNAKNSLYLQMNSLRAEDTALYYCARERPMDYWGQGTLVTVSS VL: DIQMTQSPSTLSASVGDRVTITCKASQDVGTAVAWYQQKPGQPPKLLIYWASTRHTGVPDRFSGSGSGTDFTLTISSLQAEDFAVYFCHQHSSNPLTFGQGTKLEIK	6.93	12.2	0.00307	252000
VH1/Vκ1 (antibody, V domains shown) VH: EVQLVESGGGLVKPGGSLRLSCAASGFTFSNYAMSWVRQAPGKGLEWVATISNRGSYTYYPDSVKGRFTISRDNAKNSLYLQMSSLRSEDTALYYCARERPMDYWGQGTSVTVSS VL: DIVMTQSPSFLSASVGDRVTITCKASQDVGTAVAWYQQKPGQPPKLLIYWASTRHTGVPDRFTGSGSGTDFTLTISSLQSEDFAVYFCHQHSSNPLTFGQGTKLEIK	2.85	5.01	0.00287	574000
VH2/Vκ2 (antibody, V domains shown) VH: EVQLVESGGGLVKPGGSLRLSCAASGFTFSNYAMSWVRQAPGKGLEWVATISNRGSYTYYPDSVKGRFTISRDNAKNSLYLQMNSLRAEDTALYYCARERPMDYWGQGTLVTVSS VL: DIVMTQSPSTLSASVGDRVTITCKASQDVGTAVAWYQQKPGQPPKLLIYWASTRHTGVPDRFTGSGSGTDFTLTISSLQAEDFAVYFCHQHSSNPLTFGQGTKLEIK	7.9	13.9	0.00326	234000
VH1/Vκ3 (antibody, V domains shown) VH: EVQLVESGGGLVKPGGSLRLSCAASGFTFSNYAMSWVRQAPGKGLEWVATISNRGSYTYYPDSVKGRFTISRDNAKNSLYLQMSSLRSEDTALYYCARERPMDYWGQGTSVTVSS VL: DIQMTQSPSTLSASVGDRVTITCKASQDVGTAVAWYQQKPGQPPKLLIYWASTRHTGVPDRFSGSGSGTDFTLTISSLQAEDFAVYFCHQHSSNPLTFGQGTKLEIK	2.22	3.9	0.00263	675000
VH1/Vκ4 (antibody, V domains shown) VH: EVQLVESGGGLVKPGGSLRLSCAASGFTFSNYAMSWVRQAPGKGLEWVATISNRGSYTYYPDSVKGRFTISRDNAKNSLYLQMSSLRSEDTALYYCARERPMDYWGQGTSVTVSS VL: DIQMTQSPSTLSASVGDRVTITCRASQDVGTAVAWYQQKPGQPPKLLIYWASTRHTGVPDRFSGSGSGTDFTLTISSLQAEDFAVYYCHQHSSNPLTFGQGTKLEIK	3.7	6.52	0.00294	451000
VH0/Vκ1 (control) (antibody, V domains shown) VH: EVQLVESGGALVKPGGSLKLSCAASGFTFSNYAMSWVRQTPEKRLEWVATISNRGSYTYYPDSVKGRFTISRDNAKNTLYLQMSSLRSEDTALYYCARERPMDYWGQGTSVTVSS VL: DIVMTQSPSFLSASVGDRVTITCKASQDVGTAVAWYQQKPGQPPKLLIYWASTRHTGVPDRFTGSGSGTDFTLTISSLQSEDFAVYFCHQHSSNPLTFGQGTKLEIK	1.52	2.68	0.00157	586000
VH1/Vκ5 (antibody, V domains shown) VH: EVQLVESGGGLVKPGGSLRLSCAASGFTFSNYAMSWVRQAPGKGLEWVATISNRGSYTYYPDSVKGRFTISRDNAKNSLYLQMSSLRSEDTALYYCARERPMDYWGQGTSVTVSS VL: DIQMTQSPSTLSASVGDRVTITCRASQDVGTAVAWYQQKPGQPPKLLIYWASTRHTGVPDRFSGSGSGTDFTLTISSLQAEDFATYYCHQHSSNPLTFGQGTKLEIK	5.09	8.96	0.00201	225000
VH2/Vκ1 (antibody, V domains shown) VH: EVQLVESGGGLVKPGGSLRLSCAASGFTFSNYAMSWVRQAPGKGLEWVATISNRGSYTYYPDSVKGRFTISRDNAKNSLYLQMNSLRAEDTALYYCARERPMDYWGQGTLVTVSS VL: DIVMTQSPSFLSASVGDRVTITCKASQDVGTAVAWYQQKPGQPPKLLIYWASTRHTGVPDRFTGSGSGTDFTLTISSLQSEDFAVYFCHQHSSNPLTFGQGTKLEIK	11.8	20.7	0.00373	180000

The remaining lines, values ahead:

Relative KD [1]	Kd [2] [nM]	koff [2] [s⁻¹]	kon [2] [M⁻¹ s⁻¹]	Binder
6.19	10.9	0.00368	339000	VH2/Vκ4 (antibody, V domains shown) VH: EVQLVESGGGLVKPGGSLRLSCAASGFTFSNYAMSWVRQAPGKGLEWVATISNRGSYTYYPDSVKGRFTISRDNAKNSLYLQMNSLRAEDTALYYCARERPMDYWGQGTLVTVSS VL: DIQMTQSPSTLSASVGDRVTITCRASQDVGTAVAWYQQKPGQPPKLLIYWASTRHTGVPDRFSGSGSGTDFTLTISSLQAEDFAVYYCHQHSSNPLTFGQGTKLEIK
8.98	15.8	0.00451	285000	VH3/Vκ5 (antibody, V domains shown) VH: EVQLVESGGGLVKPGGSLRLSCAASGFTFSNYAMSWVRQAPGKGLEWVATISNRGSYTYYADSVKGRFTISRDNAKNSLYLQMNSLRAEDTALYYCARERPMDYWGQGTLVTVSS VL: DIQMTQSPSTLSASVGDRVTITCRASQDVGTAVAWYQQKPGQPPKLLIYWASTRHTGVPDRFSGSGSGTDFTLTISSLQAEDFATYYCHQHSSNPLTFGQGTKLEIK
9.09	16	0.00377	236000	VH3/Vκ2 (antibody, V domains shown) VH: EVQLVESGGGLVKPGGSLRLSCAASGFTFSNYAMSWVRQAPGKGLEWVATISNRGSYTYYADSVKGRFTISRDNAKNSLYLQMNSLRAEDTALYYCARERPMDYWGQGTLVTVSS VL: DIVMTQSPSTLSASVGDRVTITCKASQDVGTAVAWYQQKPGQPPKLLIYWASTRHTGVPDRFTGSGSGTDFTLTISSLQAEDFAVYFCHQHSSNPLTFGQGTKLEIK
8.47	14.9	0.00329	220000	VH3/Vκ3 (antibody, V domains shown) VH: EVQLVESGGGLVKPGGSLRLSCAASGFTFSNYAMSWVRQAPGKGLEWVATISNRGSYTYYADSVKGRFTISRDNAKNSLYLQMNSLRAEDTALYYCARERPMDYWGQGTLVTVSS VL: DIQMTQSPSTLSASVGDRVTITCKASQDVGTAVAWYQQKPGQPPKLLIYWASTRHTGVPDRFSGSGSGTDFTLTISSLQAEDFAVYFCHQHSSNPLTFGQGTKLEIK
9.83	17.3	0.0046	267000	VH3/Vκ4 (antibody, V domains shown) VH: EVQLVESGGGLVKPGGSLRLSCAASGFTFSNYAMSWVRQAPGKGLEWVATISNRGSYTYYADSVKGRFTISRDNAKNSLYLQMNSLRAEDTALYYCARERPMDYWGQGTLVTVSS VL: DIQMTQSPSTLSASVGDRVTITCRASQDVGTAVAWYQQKPGQPPKLLIYWASTRHTGVPDRFSGSGSGTDFTLTISSLQAEDFAVYYCHQHSSNPLTFGQGTKLEIK
7.9	13.9	0.00404	291000	VH3/Vκ1 (antibody, V domains shown) VH: EVQLVESGGGLVKPGGSLRLSCAASGFTFSNYAMSWVRQAPGKGLEWVATISNRGSYTYYADSVKGRFTISRDNAKNSLYLQMNSLRAEDTALYYCARERPMDYWGQGTLVTVSS VL: DIVMTQSPSFLSASVGDRVTITCKASQDVGTAVAWYQQKPGQPPKLLIYWASTRHTGVPDRFTGSGSGTDFTLTISSLQSEDFAVYFCHQHSSNPLTFGQGTKLEIK
9.43	16.6	0.00375	225000	VH2/Vκ5 (antibody, V domains shown) VH: EVQLVESGGGLVKPGGSLRLSCAASGFTFSNYAMSWVRQAPGKGLEWVATISNRGSYTYYPDSVKGRFTISRDNAKNSLYLQMNSLRAEDTALYYCARERPMDYWGQGTLVTVSS VL: DIQMTQSPSTLSASVGDRVTITCRASQDVGTAVAWYQQKPGQPPKLLIYWASTRHTGVPDRFSGSGSGTDFTLTISSLQAEDFATYYCHQHSSNPLTFGQGTKLEIK
